Laboratory results as given in patent US11542515B2, “Methods and compositions for increasing efficiency of targeted gene modification using oligonucleotide-mediated gene repair” (CIBUS US LLC, priority 2016, dated 2023).
d = 2'-deoxy (DNA); m = 2'-O-methyl

Test system: EPSPS 2-25 gene
Test: EPSPS precise edits by Cas9 RNP plus GRON in leaf protoplasts (deep sequencing)
Format: cell-based, Brassica napus
Conditions: with Cas9 protein complexed with BnEPSPS gRNA-1, three weeks, three independent experiments
Protocol: Brassica napus protoplasts derived from leaves of in vitro propagated nodal cuttings were seeded in a 50 ml centrifuge tube at 2,000,000 cells per tube and at a cell density of 5×10^6 cells/ml. CRISPR-Cas9 targeting the EPSPS 2-25 gene along with GRON was delivered as a ribonucleoprotein complex using the PEG method or by alternative delivery methods such as by electroporation, cell-penetrating peptides and/or lipid based delivery techniques. Protoplasts were incubated in the dark at 25° C. for three weeks, and then analyzed deep sequencing in order to determine the percentage of precise EPSPS edits and frequency of indels within a given treatment.
The CRISPR-Cas9 consists of two components: the Streptococcus pyogenes Cas9 (SpCas9) and sgRNA which form the RNP CRISPR-Cas9 complex when mixed. The sgRNA is a fusion of CRISPR RNA (crRNA) and trans-activating crRNA (tracrRNA). The crRNA region contains the spacer sequence used to guide the Cas9 nuclease to the EPSPS target gene. In these experiments RNP CRISPR-Cas9 is used to target the EPSPS 2-25 gene. The GRON contains the coding sequence of the EPSPS gene near the site of conversion as well as nucleotide alterations to produce the desired changes to the EPSPS gene.

B1: 2′OMe; BnEPSPS-2-25/NC 101-mer: 101-mer 2OMe GRON targeting Brassica napus EPSPS 2-25, SEQ ID NO: 336 (nucleic acid)
chain: UTACCTTGCGTTGCCACCTGCAGCAGTAACTGCAGCGGTAAGTGTACGCATCGCTATTCCAGCATTCCCAAGGTACAACTCGATATCACTCTTGGAATCTA
modifications: sugars from the 5' end m1 d100, backbone and methylation of C not given here
- gene editing in the targeted epsps gene(s): 0.07-0.125%
